According to patent US20210246218A1 (LYVGEN BIOPHARMA SUZHOU, published 2021):

Assays:
[1] = biological target: T1, mouse CD137 protein (mouse, UniProt P20334 24-187); assay: ELISA, protein coated at 1 µg/mL
T1 construct: Coated on ELISA plates; also called Rodent CD137; murine CD137
T1 sequence (looked up): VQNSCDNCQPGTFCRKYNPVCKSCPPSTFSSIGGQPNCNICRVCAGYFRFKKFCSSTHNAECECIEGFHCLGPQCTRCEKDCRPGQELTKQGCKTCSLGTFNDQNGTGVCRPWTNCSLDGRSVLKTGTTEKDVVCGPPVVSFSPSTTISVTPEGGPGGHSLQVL
Experimental: (§1) The plate was decanted and washed once; assay diluent was added at 200 μL/well. After a 1-hour incubation at room temperature, the plate was washed with PBST one time. […] These samples were added into the plate 50 μL/well. The plate was incubated 1 hour at room temperature and then washed three times with PBST. Goat anti-human IgG-H+L HRP-conjugated at 1:100,000 dilution or goat anti-mouse IgG (H+L) secondary antibody, HRP, at 1:50,000 dilution was added to the plate at 100 μL/well. The plate was incubated 1 hour at room temperature followed by washing with PBST four times. The TMB substrate solution was added 100 μL/well. The color was permitted to develop for 15 minutes and then 100 μL/well 2N H₂SO₄ was added to terminate the reaction. Absorbance at 450 nm and 620 nm was determined by a Tecan F200 Pro reader.

[2] = biological target: T2, human LAG-3 protein (human, UniProt P18627 23-450); assay: ELISA, protein coated at 1 µg/mL
T2 sequence (looked up): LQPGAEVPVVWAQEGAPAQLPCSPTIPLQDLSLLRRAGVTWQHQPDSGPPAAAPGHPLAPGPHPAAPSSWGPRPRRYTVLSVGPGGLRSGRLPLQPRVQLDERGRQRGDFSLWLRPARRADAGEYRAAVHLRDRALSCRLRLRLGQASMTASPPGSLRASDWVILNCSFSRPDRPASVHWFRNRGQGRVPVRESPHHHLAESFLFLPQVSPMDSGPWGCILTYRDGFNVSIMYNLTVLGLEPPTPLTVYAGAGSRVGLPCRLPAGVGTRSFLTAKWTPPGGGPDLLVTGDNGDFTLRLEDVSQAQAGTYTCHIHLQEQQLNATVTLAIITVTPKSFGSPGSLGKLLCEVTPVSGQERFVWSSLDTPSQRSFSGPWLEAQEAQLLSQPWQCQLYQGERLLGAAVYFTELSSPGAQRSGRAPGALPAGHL
Experimental: as §1

[3] = biological target: human CD40 protein (human, UniProt P25942 21-193); assay: ELISA, protein coated at 1 µg/mL
Sequence of human CD40 protein (P25942 21-193 limits assumed): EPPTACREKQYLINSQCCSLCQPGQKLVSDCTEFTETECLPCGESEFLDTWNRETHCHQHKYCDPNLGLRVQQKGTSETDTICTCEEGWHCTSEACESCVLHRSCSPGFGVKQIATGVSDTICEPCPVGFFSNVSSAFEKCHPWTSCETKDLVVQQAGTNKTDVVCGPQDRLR
Experimental: as §1

[4] = biological target: T3, human CD137 on cells (human, UniProt Q07011 24-255); assay: flow cytometry on CHO-human CD137 cells, PE anti-human IgG-Fc
T3 construct: whole, on cells; also called CHO-human CD137; CHO cells over-expressing human CD137
T3 sequence (Q07011 24-255): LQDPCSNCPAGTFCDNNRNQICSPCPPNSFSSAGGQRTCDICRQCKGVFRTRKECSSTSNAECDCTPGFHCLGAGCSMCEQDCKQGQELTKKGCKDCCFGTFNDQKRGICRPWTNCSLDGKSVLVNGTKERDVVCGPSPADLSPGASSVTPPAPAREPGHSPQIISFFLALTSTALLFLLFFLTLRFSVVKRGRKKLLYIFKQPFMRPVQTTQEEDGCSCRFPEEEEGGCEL
Experimental: CHO cells over-expressing human or cynomolgus monkey CD137 and CHO parental cells were harvested by centrifugation at 1000 g for 3 minutes. The cells were resuspended in ice cold assay buffer at 2*10\hat{ }6/mL and transferred to 96-well V-bottom plate with 100 μL/well. […] The plate was mixed and incubated in the dark for 2 hours at 4° C. The cells were washed 3 times by centrifugation at 1000 g for 3 min and resuspended in ice cold assay buffer containing goat F(ab′)₂ anti-human IgG-Fc (PE), 100 μL/well. The plate was incubated in the dark for another 1 hour at 4° C. The cells were washed 2 times by centrifugation at 1000 g for 3 min and resuspended in ice cold assay buffer containing 2% PFA. The cells were then subjected to the flow cytometer immediately.
Mean fluorescence intensity (MFI) was calculated from the total cell population in the FCM experiments. Graphpad 7.0, “[Agonist] vs. response—Variable slope (four parameters)” was used to plot the binding MFI in dose response and to calculate FCM binding EC₅₀ values.

B1: Clone 3712-IgG1v (IgG1v/kappa) (antibody)
heavy: QVQLVQSGAEVKKPGASVKVSCKASGYTFAGFEMHWVRQAPGQGLEWMGAIDPKTGGTDYNQKFKDRVTMTRDTSISTAYMELSRLRSDDTAVYYCARDLGYFDVWGQGTLVTVSSASTKGPSVFPLAPSSKSTSGGTAALGCLVKDYFPEPVTVSWNSGALTSGVHTFPAVLQSSGLYSLSSVVTVPSSSLGTQTYICNVNHKPSNTKVDKKVEPKSCDKTHTCPPCPAPELLGPSVFLFPPKPKDTLMISRTPEVTCVVVDVEHEDPEVKFNWYVDGVEVHNAKTKPREEQYNSTYRVVSVLTVLHQDWLNGKEYKCKVSNKALPAPIEKTISKAKGQPREPQVYTLPPSREEMTKNQVSLTCLVKGFYPSDIAVEWESNGQPENNYKTTPPVLDSDGSFFLYSKLTVDKSRWQQGNVFSCSVMHEALHNHYTQKSLSLSPGK
light: DIQMTQSPSSLSASVGDRVTITCRASQDIRSNLNWYQQKPGGAVKLLIYYTSRLHSGVPSRFSGSGSGTDYTLTISSLQPEDFATYFCQQSEKLPRTFGGGTKVEIRRTVAAPSVFIFPPSDEQLKSGTASVVCLLNNFYPREAKVQWKVDNALQSGNSQESVTEQDSKDSTYSLSSTLTLSKADYEKHKVYACEVTHQGLSSPVTKSFNRGEC
notes: copies: 2 + 2
B1: no binding (tested: 10 µg/mL and 1 µg/mL) [1]; no binding (tested: 10 µg/mL and 1 µg/mL) [2]; no binding (tested: 10 µg/mL and 1 µg/mL) [3]. For the same binder, the “EC50 (read off the curve)” value [4] was about 0.05 µg/mL.
